Measured values from patent publication US20240100176A1 (Eli Lilly, published 2024).

Key:
[1] = biological target: T1, hexahistidine-tagged human IL-4Rα extracellular domain (human, UniProt P24394 26-232); experiment: competition MSD ELISA (solution equilibrium, 37 °C), apparent KD, single experiment
T1 construct: In the MSD assay the plate coat is the His-tagged ECD; also called human IL-4Rα ECD; Wild type receptor; not shown: hexahistidine tag
T1 sequence: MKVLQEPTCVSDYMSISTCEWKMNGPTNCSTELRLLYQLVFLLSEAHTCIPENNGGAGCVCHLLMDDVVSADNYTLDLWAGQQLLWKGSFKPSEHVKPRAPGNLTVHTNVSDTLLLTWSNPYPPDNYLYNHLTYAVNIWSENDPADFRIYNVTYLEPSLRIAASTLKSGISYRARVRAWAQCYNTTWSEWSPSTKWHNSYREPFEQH
Experimental: (§1) Example 3a. […] A 96-well multi-array plate (Meso Scale Diagnostics, Cat. #L15XA-3) was coated at 4° C. overnight with 0.5 μg/mL hexahistidine-tagged human or cynomolgus monkey IL-4Rα ECD in phosphate buffered saline (PBS). Following coating, plates were washed 10 times with 200 μL PBST (PBS with 0.05% Tween® 20) and blocked with 300 μL/well of PBS casein blocking buffer (Pierce, Cat. #37528) at 37° C. for 1 hour. Plates were then washed 10 times as above, and 50 μL of the preincubated antibody:IL-4Rα dilution series was transferred to the wells and incubated at 37° C. with 300 rpm shaking for […]. Plates were washed 10 times with PBST, 50 μL of 1 μg/mL anti-human antibody sulfo-tag 20 (Meso Scale Diagnostics, Cat. #R32AJ-1) was added to the plates for the assay of Table 7a, and anti-Human NHP Kappa Light chain SULFO-TAG 20 (Meso Scale Diagnostics, Cat #D20TF-6) was added to the plates for the assay of Table 7b, and plates were incubated at 37° C. with 300 rpm shaking for 30 minutes. Plates were washed 10 times with PBST, 150 μL/well of 1× Read Buffer T was added to the wells and analyzed on a SECTOR® Imager 6000 (Meso Scale Diagnostics) 15 min after buffer addition. The apparent KD is determined by fitting a sigmoidal curve to the electrochemiluminescence (ECL) response vs. log (soluble IL-4Rα concentration) using GraphPad Prism 9. Data is graphed with normalized ECL values.

[2] = biological target: T2, hexahistidine-tagged cynomolgus monkey IL-4Rα extracellular domain (cynomolgus monkey, UniProt P24394 26-231 (human entry)); experiment: as above
T2 construct: also called cynomolgus monkey IL-4Rα ECD; not shown: hexahistidine tag
T2 chain: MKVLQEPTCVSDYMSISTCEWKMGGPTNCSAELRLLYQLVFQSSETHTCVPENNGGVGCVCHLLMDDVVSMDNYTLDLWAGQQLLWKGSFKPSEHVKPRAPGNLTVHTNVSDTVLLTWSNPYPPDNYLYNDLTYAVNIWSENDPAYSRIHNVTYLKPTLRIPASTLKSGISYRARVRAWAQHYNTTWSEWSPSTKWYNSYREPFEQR
Experimental: as §1

[3] = biological target: T3, human IL-4Rα on cells (human PBMC B cells and CD4+ T cells, Daudi cells, HEK-Blue IL-4/IL-13 cells, myeloid … (human, UniProt P24394 26-825)); experiment: flow cytometry on human PBMCs, CD4-positive T cells, Alexa Fluor 647 labelled antibody, percent IL-4Rα positive cells
T3 sequence: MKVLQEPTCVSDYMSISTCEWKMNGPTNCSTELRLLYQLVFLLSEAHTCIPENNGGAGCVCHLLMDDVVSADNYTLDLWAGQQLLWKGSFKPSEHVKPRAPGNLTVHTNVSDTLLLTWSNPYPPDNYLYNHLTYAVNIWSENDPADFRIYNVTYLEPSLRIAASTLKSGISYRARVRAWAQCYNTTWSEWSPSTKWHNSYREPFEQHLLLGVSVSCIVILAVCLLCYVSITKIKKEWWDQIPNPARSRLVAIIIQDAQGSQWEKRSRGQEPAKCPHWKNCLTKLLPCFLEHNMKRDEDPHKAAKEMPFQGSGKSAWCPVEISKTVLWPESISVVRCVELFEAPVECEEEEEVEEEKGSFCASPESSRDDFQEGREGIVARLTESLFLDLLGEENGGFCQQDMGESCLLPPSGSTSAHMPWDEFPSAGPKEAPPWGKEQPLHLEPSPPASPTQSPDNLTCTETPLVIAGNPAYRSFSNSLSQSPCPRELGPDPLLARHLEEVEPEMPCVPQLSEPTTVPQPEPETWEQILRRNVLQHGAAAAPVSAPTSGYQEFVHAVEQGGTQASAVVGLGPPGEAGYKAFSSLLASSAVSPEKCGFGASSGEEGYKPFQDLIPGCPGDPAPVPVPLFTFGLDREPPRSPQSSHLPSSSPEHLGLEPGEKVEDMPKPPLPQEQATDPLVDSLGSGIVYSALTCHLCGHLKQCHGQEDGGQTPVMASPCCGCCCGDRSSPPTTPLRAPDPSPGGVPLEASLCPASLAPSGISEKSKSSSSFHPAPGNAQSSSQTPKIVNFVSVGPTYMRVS
Experimental: Example 3b. Binding to B cells and T cells: Binding of the exemplified anti-human IL-4Rα antibodies to B cells and T cells was tested in a Fluorescence Activated Cell Sorting (FACS) assay. […] Freshly isolated cells PBMCs were resuspended at 2×10⁶ cells/mL and allowed to rest for 15 minutes at room temperature, then plated at 100 μL/well into a round bottom 96-well plate (COSTAR®) and washed with FACS buffer (PBS containing 2% fetal bovine serum from Corning®). Exemplified anti-human IL-4Rα antibodies and the respective control IgG antibodies conjugated to Alexa Fluor® 647 according to manufacturer's protocol (Thermo Fisher Scientific) were added to the wells at 66.67 nM and diluted 4-fold in duplicate. Equivalent volume of 2× antibody cocktail containing: Human TruStain FcX™. FITC anti-human CD3 Antibody, Alexa Fluor® 700 anti-human CD4 Antibody (all from Biolegend®) and CD20 Monoclonal Antibody (2H7), PerCP-Cyanine5.5 (Thermo Fisher Scientific) was then added to the wells. Cells were incubated at 4° C. for 30 minutes, washed twice with FACS buffer and resuspended in a final volume of 100 μL FACS buffer. Viability dye, Sytox™ blue (Thermo Fisher Scientific), was added and the samples were analyzed via a flow cytometer (LSRFortessa™ X-20; BD BIOSCIENCES). Data analysis was performed using FlowJo software and statistical analysis was performed using GraphPad Prism 9. […]

Kd [1]: 0.0208 nM | Kd [2]: 0.0233 nM | EC50 [3]: 26.3 nM
B1: anti-human IL-4Rα antibody Ab1 (antibody, human IgG4 S228P, kappa)
heavy: QVQLVESGGGLVQPGGSLRLSCVASGFTFSHSSMNWVRQAPGKGLEWVSYISRATGAVYYADSVKGRFTISRDNAKNSLYLQMNSLRDEDTAVYYCAREPVFDYWGQGTLVTVSSASTKGPCVFPLAPCSRSTSESTAALGCLVKDYFPEPVTVSWNSGALTSGVHTFPAVLQSSGLYSLSSVVTVPSSSLGTKTYTCNVDHKPSNTKVDKRVESKYGPPCPPCPAPEFLGGPSVFLFPPKPKDTLMISRTPEVTCVVVDVSQEDPEVKFNWYVDGVEVHNAKTKPREEQFNSTYRVVSVLTVLHQDWLNGKEYKCKVSNKGLPSSIEKTISKAKGQPREPQVYTLPPSREEMTKNQVSLTCLVKGFYPSDICVEWESNGQPENNYKTTPPVLDSDGSFFLYSRLTVDKSRWQQGNVFSCSVMHEALHNHYTQKSLSLSLG
light: DIQMTQSPSAMSASVGDRVTITCRASQDISNYLAWFQQKPGKVPTRLIYAASSLQSGVPSRFSGSGSGTEFTLTISSLQPEDFATYYCLQWSSYPRTFGQGTKVEIKRTVAAPSVFIFPPSDEQLKSGTASVVCLLNNFYPREAKVQWKVDNALQSGNSQESVTEQDSKDSTYSLSSTLTLSKADYEKHKVYACEVTHQGLSSPVTKSFNRGEC
notes: human kappa light chain; also called anti-human IL-4Rα Ab1; unconjugated Ab1
